Article PMC12445699

Experiments:
[1] = molecular target: H3-nucleosome (mono-nucleosome with canonical H3) (UniProt P84233)
[2] = molecular target: H3.3-nucleosome (mono-nucleosome with the variant H3.3) (UniProt P84243)
H3.3S31A-nucleosome = H3.3S31A-nucleosome (UniProt P84243)
H3.3S31E-nucleosome = H3.3S31E-nucleosome (UniProt P84243)
[3] = molecular target: H3.3S31ph-nucleosome (H3.3-nucleosome with Ser31 phosphorylation) (UniProt P84243)

FACT (Facilitates Chromatin Transcription) complex (from UniProt Q9Y5B9 1-1047; Q08945 1-709)
rupture force at which the nucleosome is completely disrupted in the presence of FACT (magnetic tweezers) [1]: 6.7 pN | rupture force at which the nucleosome is completely disrupted in the presence of FACT (magnetic tweezers) [2]: 24.5 pN | rupture force at which the nucleosome is completely disrupted in the presence of FACT (magnetic tweezers) (H3.3S31A-nucleosome): 25.4 pN | rupture force at which the nucleosome is completely disrupted in the presence of FACT (magnetic tweezers) (H3.3S31E-nucleosome): 25.4 pN | force of disruption in the first stretching cycle in the presence of FACT; no transitions in later cycles (magnetic tweezers) [3]: 13.9 pN
